Laboratory results from patent US12295987B2, “Method of using a GIP/GLP1 co-agonist for diabetes” (Eli Lilly and Company, priority 2018, dated 2025).
Numbered stars: 1 amine (or outer) side, 2 acyl side, 3 side chain; on linkers, the order of the positions; unused ones are H or OH. Square brackets hold non-standard residues; d marks the D form. Side chains are listed from the residue outwards. Ends that are not written are not given here. * marks the point of attachment. C20 diacid = O=C(O)CCCCCCCCCCCCCCCCCCC(=O)*; C18 diacid = O=C(O)CCCCCCCCCCCCCCCCC(=O)*; γGlu = O=C(O)[C@H](CCC(=O)[*:2])N[*:1]; αMeP = C[C@@]1(C(=O)O)CCCN1; AEEA = NCCOCCOCC(=O)O; Aib = CC(C)(N)C(=O)O

Target: T1, human gastric inhibitory peptide receptor (hGIPR) (Homo sapiens, UniProt P48546)
T1 construct: expressed in transfected cells; host or cells: HEK293
T1 sequence (P48546 22-466): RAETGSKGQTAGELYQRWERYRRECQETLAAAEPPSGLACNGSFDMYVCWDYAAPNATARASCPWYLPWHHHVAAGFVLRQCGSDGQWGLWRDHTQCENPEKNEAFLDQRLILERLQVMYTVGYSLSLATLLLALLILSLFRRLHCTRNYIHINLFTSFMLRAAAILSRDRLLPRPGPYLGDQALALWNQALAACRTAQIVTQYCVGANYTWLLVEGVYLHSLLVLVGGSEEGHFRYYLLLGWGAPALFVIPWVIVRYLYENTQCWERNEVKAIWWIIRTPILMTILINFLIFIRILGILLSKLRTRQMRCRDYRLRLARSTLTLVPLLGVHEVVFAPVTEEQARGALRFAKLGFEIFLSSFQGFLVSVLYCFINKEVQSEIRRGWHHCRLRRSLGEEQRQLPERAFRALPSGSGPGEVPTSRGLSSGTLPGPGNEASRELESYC
Test: cAMP pharmacological functional assay in presence of 0.1% casein, hGIPR
Type: cell-based
Conditions: ratio of hGIPR to hGLP1R cAMP EC50 ratios

Point of comparison: “Y-Aib-EGT-αMeF(2F)-TSD-4Pal-SI-αMeL-LDEK((2-[2-(2-Amino-ethoxy)-ethoxy]-acetyl)2CO—(CH2)18—CO2H)AQ-Aib-EFI-(D-Glu)-YLIEGGPSSGAPPPS-NH2 (YXEGTXTSDXSIXLDEKAQXEFIXYLIEGGPSSGAPPPS; Aib, αMeF(2F), 4Pal, αMeL, D-Glu; lipidated K; amide; (2)..(2) Xaa at position 2 is Aib; (6)..(6) Xaa at position 6 is alpha-methyl-Phe(2F); (10)..(10) Xaa at position 10 is 4Pal; (13)..(13) Xaa at position 13 is alpha-methyl-Leu; MOD_RES (17)..(17) Lys at position 17 is chemically modified by conjugation of the epsilon-amino group of the Lys side chain with (2-[2-(2-amino-ethoxy)-ethoxy]-acetyl)2-CO-(CH2)18-CO2H; (20)..(20) Xaa at position 20 is Aib) [Peptide 206]”, “[hGIPR/hGLP1R] EC50 Ratio” value 3.35. Against it:
- Y-Aib-EGTFTSDYSK((2-[2-(2-Amino-ethoxy)-ethoxy]-acetyl)2-(γGlu)-CO—(CH2)18—CO2H)LLDKIAQ-Aib-AFIEYLIEGGPSSGAPPPS-NH2 (Y[Aib]EGTFTSDYSK([AEEA-AEEA-γGlu-C20 diacid])LLDKIAQ[Aib]AFIEYLIEGGPSSGAPPPS-NH2; N-terminus assumed; SMILES CC[C@H](C)[C@H](NC(=O)[C@H](CCCCN)NC(=O)[C@H](CC(=O)O)NC(=O)[C@H](CC(C)C)NC(=O)[C@H](CC(C)C)NC(=O)[C@H](CCCCNC(=O)COCCOCCNC(=O)COCCOCCNC(=O)CC[C@H](NC(=O)CCCCCCCCCCCCCCCCCCC(=O)O)C(=O)O)NC(=O)[C@H](CO)NC(=O)[C@H](Cc1ccc(O)cc1)NC(=O)[C@H](CC(=O)O)NC(=O)[C@H](CO)NC(=O)[C@@H](NC(=O)[C@H](Cc1ccccc1)NC(=O)[C@@H](NC(=O)CNC(=O)[C@H](CCC(=O)O)NC(=O)C(C)(C)NC(=O)[C@@H](N)Cc1ccc(O)cc1)[C@@H](C)O)[C@@H](C)O)C(=O)N[C@@H](C)C(=O)N[C@@H](CCC(N)=O)C(=O)NC(C)(C)C(=O)N[C@@H](C)C(=O)N[C@@H](Cc1ccccc1)C(=O)N[C@H](C(=O)N[C@@H](CCC(=O)O)C(=O)N[C@@H](Cc1ccc(O)cc1)C(=O)N[C@@H](CC(C)C)C(=O)N[C@H](C(=O)N[C@@H](CCC(=O)O)C(=O)NCC(=O)NCC(=O)N1CCC[C@H]1C(=O)N[C@@H](CO)C(=O)N[C@@H](CO)C(=O)NCC(=O)N[C@@H](C)C(=O)N1CCC[C@H]1C(=O)N1CCC[C@H]1C(=O)N1CCC[C@H]1C(=O)N[C@@H](CO)C(N)=O)[C@@H](C)CC)[C@@H](C)CC) [Peptide 25] — lower, 3.23
- Y-Aib-EGT-αMeF-TSDYSI-αMeL-LDSK((2-[2-(2-Amino-ethoxy)-ethoxy]-acetyl)2-(γGlu)-CO—(CH2)18—CO2H)AQ-Aib-AFIEYLIEGGPSSG-NH2 [Peptide 99] — higher, 3.61
- Y-Aib-EGTFTSDYSI-αMeL-LDSK((2-[2-(2-Amino-ethoxy)-ethoxy]-acetyl)2-(γGlu)-CO—(CH2)18—CO2H)AQ-Aib-AFIEYLIEGG-NH2 (YXEGTFTSDYSIXLDSKAQXAFIEYLIEGG; Aib, αMeL; K lipidated C20 diacid-γGlu-AEEA2; C-terminal amide; (2)..(2) Xaa at position 2 is Aib; (13)..(13) Xaa at position 13 is alpha-methyl-Leu; MOD_RES (17)..(17) Lys at position 17 is chemically modified by conjugation of the epsilon-amino group of the Lys side chain with (2-[2-(2-amino-ethoxy)-ethoxy]-acetyl)2-(gamma-Glu)-CO-(CH2)18- CO2H; (20)..(20) Xaa at position 20 is Aib; MOD_RES (30)..(30) Gly at position 30 is amidated) [Peptide 64] — higher, 3.66
- Y-Aib-EGT-αMeF(2F)-TSDYSI-αMeL-LDKK((2-[2-(2-Amino-ethoxy)-ethoxy]-acetyl)-(γGlu)-(2-[2-(2-Amino-ethoxy)-ethoxy]-acetyl)-CO—(CH2)18—CO2H)AQ-Aib-EFI-(D-Glu)-YLIEGGPSSGAPPPS-NH2 (YXEGTXTSDYSIXLDKKAQXEFIXYLIEGGPSSGAPPPS; Aib, αMeF(2F), αMeL, D-Glu; lipidated K; amide; (2)..(2) Xaa at position 2 is Aib; (6)..(6) Xaa at position 6 is alpha-methyl-Phe(2F); (13)..(13) Xaa at position 13 is alpha-methyl-Leu; MOD_RES (17)..(17) Lys at position 17 is chemically modified by conjugation of the epsilon-amino group of the Lys side chain with (2-[2-(2-Amino-ethoxy)-ethoxy]-acetyl)-(gamma-Glu)-(2-[2-(2-Amino- ethoxy)-ethoxy]-acetyl)-CO-(CH2)18-CO2H; (20)..(20) Xaa at positi) [Peptide 211] — higher, 3.59
- Y-Aib-EGT-αMeF-TSDYSI-αMeL-LDKK((2-[2-(2-Amino-ethoxy)-ethoxy]-acetyl)2-(γGlu)-CO—(CH2)18—CO2H)AQ-Aib-TFIEYLIEGGPSSGAPPPS-NH2 (YXEGTXTSDYSIXLDKKAQXTFIEYLIEGGPSSGAPPPS; Aib, αMeF, αMeL; acylated lysine C20 diacid; amide; (2)..(2) Xaa at position 2 is Aib; (6)..(6) Xaa at position 6 is alpha-methyl-Phe; (13)..(13) Xaa at position 13 is alpha-methyl-Leu; MOD_RES (17)..(17) Lys at position 17 is chemically modified by conjugation of the epsilon-amino group of the Lys side chain with (2-[2-(2-amino-ethoxy)-ethoxy]-acetyl)2-(gamma-Glu)-CO-(CH2)18- CO2H; (20)..(20) Xaa at position 20 is Aib; MOD_RES (39)..(39) Ser at po) [Peptide 139] — lower, 3.19
- Y-Aib-EGT-αMeF(2F)-TSDHSI-αMeL-LDEK((2-[2-(2-Amino-ethoxy)-ethoxy]-acetyl)2-(γGlu)-CO—(CH2)18—CO2H)AQ-Aib-TFI-(D-Glu)-YLIEGGPSSGAPPPS-NH2 (YXEGTXTSDHSIXLDEKAQXTFIXYLIEGGPSSGAPPPS; Aib, αMeF(2F), αMeL, D-Glu; lipidated K; C-terminal amide; (2)..(2) Xaa at position 2 is Aib; (6)..(6) Xaa at position 6 is alpha-methyl-Phe(2F); (13)..(13) Xaa at position 13 is alpha-methyl-Leu; MOD_RES (17)..(17) Lys at position 17 is chemically modified by conjugation of the epsilon-amino group of the Lys side chain with (2-[2-(2-amino-ethoxy)-ethoxy]-acetyl)2-(gamma-Glu)-CO-(CH2)18- CO2H; (20)..(20) Xaa at position 20 is Aib; (24)..(24) Xaa at positi) [Peptide 168] — higher, 9.69
- Y-Aib-EGT-αMeF-TSDLSILLDKK((2-[2-(2-Amino-ethoxy)-ethoxy]-acetyl)2-(γGlu)-CO—(CH2)18—CO2H)AQ-Aib-AFIEYLIEGGPSSGAPPPS-NH2 (YXEGTXTSDLSILLDKKAQXAFIEYLIEGGPSSGAPPPS; Aib, αMeF; acylated lysine C20 diacid; amide; (2)..(2) Xaa at position 2 is Aib; (6)..(6) Xaa at position 6 is alpha-methyl-Phe; MOD_RES (17)..(17) Lys at position 17 is chemically modified by conjugation of the epsilon-amino group of the Lys side chain with (2-[2-(2-amino-ethoxy)-ethoxy]-acetyl)2-(gamma-Glu)-CO-(CH2)18- CO2H; (20)..(20) Xaa at position 20 is Aib; MOD_RES (39)..(39) Ser at position 39 is amidated) [Peptide 129] — higher, 3.46
- Y-αMePro-EGTFTSDYSILLDEK((2-[2-(2-Amino-ethoxy)-ethoxy]-acetyl)2-(γGlu)-CO—(CH2)16—CO2H)AQQAFIEYLIEGGPSSG-NH2 (Y[αMeP]EGTFTSDYSILLDEK([AEEA-AEEA-γGlu-C18 diacid])AQQAFIEYLIEGGPSSG-NH2; N-terminus assumed; SMILES CC[C@H](C)[C@H](NC(=O)[C@H](CC(C)C)NC(=O)[C@H](Cc1ccc(O)cc1)NC(=O)[C@H](CCC(=O)O)NC(=O)[C@@H](NC(=O)[C@H](Cc1ccccc1)NC(=O)[C@H](C)NC(=O)[C@H](CCC(N)=O)NC(=O)[C@H](CCC(N)=O)NC(=O)[C@H](C)NC(=O)[C@H](CCCCNC(=O)COCCOCCNC(=O)COCCOCCNC(=O)CC[C@H](NC(=O)CCCCCCCCCCCCCCCCC(=O)O)C(=O)O)NC(=O)[C@H](CCC(=O)O)NC(=O)[C@H](CC(=O)O)NC(=O)[C@H](CC(C)C)NC(=O)[C@H](CC(C)C)NC(=O)[C@@H](NC(=O)[C@H](CO)NC(=O)[C@H](Cc1ccc(O)cc1)NC(=O)[C@H](CC(=O)O)NC(=O)[C@H](CO)NC(=O)[C@@H](NC(=O)[C@H](Cc1ccccc1)NC(=O)[C@@H](NC(=O)CNC(=O)[C@H](CCC(=O)O)NC(=O)[C@]1(C)CCCN1C(=O)[C@@H](N)Cc1ccc(O)cc1)[C@@H](C)O)[C@@H](C)O)[C@@H](C)CC)[C@@H](C)CC)C(=O)N[C@@H](CCC(=O)O)C(=O)NCC(=O)NCC(=O)N1CCC[C@H]1C(=O)N[C@@H](CO)C(=O)N[C@@H](CO)C(=O)NCC(N)=O) [Peptide 197] — higher, 4.52
